# Read-outs that look alike come from different tables or passages of the source.
# Key:
# [1] = molecular target: monomeric HIV-1 Ba-L gp120 (HIV-1 Ba-L)
# [2] = molecular target: monomeric HIV-1 Ba-L gp120 (HIV-1 Ba-L); remark: listed apart in the source
# [3] = molecular target: monomeric HIV-1 Ba-L gp120 (HIV-1 Ba-L); remark: listed apart in the source
binder,measurement,setting,value
N49P7 (antibody) heavy: not shown light: QSALTQPRSVSASPGQSVTISCTGTHNLVSWCQHQPGRAPKLLIYDFNKRPSGVPDRFSGSGSGGTASLTITGLQDDDDAEYFCWAYEAFGGGTKLTVLGQPKAAPSVTLFPPSSEELQANKATLVCLISDFYPGAVTVAWKADSSPVKAGVETTTPSKQSNNKYAASSYLSLTPEQWKSHRSYSCQVTHEGSTVEKTVAPTECS,Kd,[1],0.86 nM
N49P7.1 (antibody) heavy: not shown light: QSALTQPRSVSASPGQSVTISCTGTHNLVSWCQHQPGRAPKLLIYDFNKRPSGVPDRFSGSGSGGTASLTITGLQDDDDAEYFCWAYEAFGGGTKLTVLRQPKAAPSVTLFPPSSEELQANKATLVCLISDFYPGAVTVAWKADSSPVKAGVETTTPSKQSNNKYAASSYLSLTPEQWKSHRSYSCQVTHEGSTVEKTVAPTECS,Kd,[2],1.14 nM
"N49P11 (antibody, V domains shown) V domain 1: SAELVQSGAVVKKPGTSVKVSCQAYGYTFTDYLIHWLRQAPGQGLEWMGWMNPVYGQVNYAQNFQGRVSMTRDIYRETAFLEVRDLKTDDTGTYYCVRDTGDGSRRHFDSINWFLDLWGRGTWIRVAP V domain 2: QCVLTQPRSVSGSPGQSVTISCTGTHNYVSWCQHHPGNAPKLLLYDFDKRPSGISDRFSGSRSGNTASLTISGLQPEDEADYFCWAFEAFGGGTKVLVLR",Kd,[3],15.6 nM
